From PMC10855866, “Structural Analysis of Breast-Milk αS1-Casein: An α-Helical Conformation Is Required for TLR4-Stimulation” (International Journal of Molecular Sciences, 2024)
Values belong to the molecule of their own block, whether it stands above or below them.

How the values were obtained:
[1] = target: αS1-casein (Bos taurus) (UniProt P02662); assay: SPR; details: cited from earlier work
[2] = target: T1, Toll-like receptor 4 (TLR4) (UniProt O00206 24-839); assay: flow cytometry on cells; TLR4+ cells (HEK293 transfected with TLR4/MD2/CD14) and TLR4- cells incubated 24 h with 500 nM αS1-casein or a truncated variant; detected with murine anti-His6 IgG and Dylight633 anti-murine IgG; details: one partner purified
T1 construct: Toll-like receptor 4 on the surface of transfected HEK293 cells; The TLR4+ cells also express MD2 and CD14; also called TLR4^+ cells; source: HEK293 cells transfected with TLR4/MD2/CD14 (InvivoGen), on cells

[3] = target: T1, Toll-like receptor 4 (TLR4); assay: cell-based or functional assay
[4] = target: the molecule itself; assay: MST; FITC-αS1-casein (25 nM) mixed with unlabelled αS1-casein in serial dilution; sonicated 15 min, incubated 1 h at 37 °C; 20 mM HEPES pH 7.2, 0.5% BSA, 0.0025% Tween-20; oligomer step not resolved
[5] = target: the molecule itself; assay: SPR; αS1-casein or P-αS1-casein immobilised on a CMDP-5 chip (450 µRIU); the same protein injected at 0.625 to 5 µM in 10 mM HEPES, 150 mM NaCl, pH 7.2 (5 min, 5 µL/min); KD could be due to a mixture of dimer, tetramer and higher oligomer
[6] = target: Toll-like receptor 4 (TLR4) (UniProt O00206)
Sequence of Toll-like receptor 4 (TLR4) (UniProt O00206) (O00206 24-839): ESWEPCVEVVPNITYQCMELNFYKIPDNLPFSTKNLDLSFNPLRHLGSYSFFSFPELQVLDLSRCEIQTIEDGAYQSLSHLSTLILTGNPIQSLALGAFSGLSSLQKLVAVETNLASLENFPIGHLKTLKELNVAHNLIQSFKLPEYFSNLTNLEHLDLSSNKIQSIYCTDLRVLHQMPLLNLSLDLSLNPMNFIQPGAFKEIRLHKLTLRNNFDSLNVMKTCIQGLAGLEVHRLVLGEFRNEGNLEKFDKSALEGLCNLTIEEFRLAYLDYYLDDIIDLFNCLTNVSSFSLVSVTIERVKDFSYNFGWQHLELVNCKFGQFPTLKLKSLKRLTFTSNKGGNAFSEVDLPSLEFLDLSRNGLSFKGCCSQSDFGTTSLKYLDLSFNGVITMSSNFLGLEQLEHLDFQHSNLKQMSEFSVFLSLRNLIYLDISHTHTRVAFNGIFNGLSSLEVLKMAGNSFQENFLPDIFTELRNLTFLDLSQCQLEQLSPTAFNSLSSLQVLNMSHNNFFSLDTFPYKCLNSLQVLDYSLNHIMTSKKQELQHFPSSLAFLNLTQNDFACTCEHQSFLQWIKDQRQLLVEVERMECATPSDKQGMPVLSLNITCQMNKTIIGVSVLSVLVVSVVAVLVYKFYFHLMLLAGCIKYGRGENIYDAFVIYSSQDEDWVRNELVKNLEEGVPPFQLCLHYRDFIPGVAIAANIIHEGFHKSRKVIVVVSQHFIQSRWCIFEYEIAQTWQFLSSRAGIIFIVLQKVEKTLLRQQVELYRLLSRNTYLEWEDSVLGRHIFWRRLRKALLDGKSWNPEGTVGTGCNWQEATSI

T1 sequence (O00206 24-839): as above
Sequence of αS1-casein (Bos taurus) (P02662 16-214): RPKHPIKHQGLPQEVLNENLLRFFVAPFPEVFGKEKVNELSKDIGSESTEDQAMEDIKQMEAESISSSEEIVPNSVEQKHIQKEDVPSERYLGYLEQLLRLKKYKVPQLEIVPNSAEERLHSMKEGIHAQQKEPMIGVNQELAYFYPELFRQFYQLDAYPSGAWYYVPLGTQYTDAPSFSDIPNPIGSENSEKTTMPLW

Molecule: αS1-casein (from UniProt P02662)
Kd [1]: 2000 nM

B1: αS1-casein truncated variant C1 (domain or fragment, human, UniProt P47710 16-163, looked up)
chain: RPKLPLRYPERLQNPSESSEPIPLESREEYMNGMNRQRNILREKQTDEIKDTRNESTQNCVVAEPEKMESSISSSSEEMSLSKCAEQFCRLNEYNQLQLQAAHAQEQIRRMNENSHVQVPFQQLNQLAAYPYAVWYYPQIMQYVPFPP
notes: human αS1-casein, residues 16-163; Amplified from pET TS001, which codes for an N-terminal His6 tag; also called pET C1; source: E. coli, purified (NTA column chromatography); not shown: His6, C-terminal, kept
fluorescence intensity on TLR4+ cells over TLR4- cells (fold) [2]: 2.3 fold
IL-8 secretion of TLR4+ cells after 24 h with 15 nM protein (sandwich ELISA) [3]: 5.2 ng/mL

B6: recombinant human αS1-casein (natural protein, UniProt P47710 16-185, looked up)
chain: RPKLPLRYPERLQNPSESSEPIPLESREEYMNGMNRQRNILREKQTDEIKDTRNESTQNCVVAEPEKMESSISSSSEEMSLSKCAEQFCRLNEYNQLQLQAAHAQEQIRRMNENSHVQVPFQQLNQLAAYPYAVWYYPQIMQYVPFPPFSDISNPTAHENYEKNNVMLQW
notes: human αS1-casein (CSN1S1), from plasmid pET TS001; C1 and C2, made from the same plasmid, begin at residue 16 and N1-N4 end at 185, so it probably lacks the signal peptide (1-15); Not phosphorylated (made in E. coli); also called full-length αS1-casein; full-size αS1-casein; source: E. coli, purified (NTA column chromatography); not shown: His6, N-terminal, kept
Kd [4]: 2200 nM
IL-8 secretion of TLR4+ cells after 24 h with 15 nM protein (sandwich ELISA) [3]: 23.3 ng/mL
Kd [5]: 2000 nM
stoichiometry N [5]: 4

B7: in vitro phosphorylated αS1-casein (P-αS1-casein) (natural protein, human, UniProt P47710 16-185, looked up)
chain: RPKLPLRYPERLQNPSESSEPIPLESREEYMNGMNRQRNILREKQTDEIKDTRNESTQNCVVAEPEKMESSISSSSEEMSLSKCAEQFCRLNEYNQLQLQAAHAQEQIRRMNENSHVQVPFQQLNQLAAYPYAVWYYPQIMQYVPFPPFSDISNPTAHENYEKNNVMLQW
modifications: phosphorylated in vitro; the sites of this preparation are not stated
notes: human αS1-casein (CSN1S1), the recombinant protein of m1 after in vitro phosphorylation; source: phosphorylated in vitro
Kd [5]: 500 nM

B8: synthetic peptide V77-E92 of αS1-casein (peptide)
peptide: VAEPEKMESSISSSSE
IL-8 secretion of TLR4+ cells after 24 h with 1.5 µM peptide (sandwich ELISA) [6]: 0.95 ng/mL

The remaining lines, values ahead:

IL-8 secretion of TLR4+ cells after 24 h with 15 nM protein (sandwich ELISA) [3]: 4.8 ng/mL
B2: αS1-casein truncated variant N2 (domain or fragment, human, UniProt P47710 57-185, looked up)
chain: REKQTDEIKDTRNESTQNCVVAEPEKMESSISSSSEEMSLSKCAEQFCRLNEYNQLQLQAAHAQEQIRRMNENSHVQVPFQQLNQLAAYPYAVWYYPQIMQYVPFPPFSDISNPTAHENYEKNNVMLQW

IL-8 secretion of TLR4+ cells after 24 h with 15 nM protein (sandwich ELISA) [3]: 7.5 ng/mL
B3: αS1-casein truncated variant N1 (domain or fragment, human, UniProt P47710 35-185, looked up)
chain: EPIPLESREEYMNGMNRQRNILREKQTDEIKDTRNESTQNCVVAEPEKMESSISSSSEEMSLSKCAEQFCRLNEYNQLQLQAAHAQEQIRRMNENSHVQVPFQQLNQLAAYPYAVWYYPQIMQYVPFPPFSDISNPTAHENYEKNNVMLQW

fluorescence intensity on TLR4+ cells over TLR4- cells (fold) [2]: 2.2 fold
IL-8 secretion of TLR4+ cells after 24 h with 15 nM protein (sandwich ELISA) [3]: 5.2 ng/mL
B4: αS1-casein truncated variant C2 (domain or fragment, human, UniProt P47710 16-145, looked up)
chain: RPKLPLRYPERLQNPSESSEPIPLESREEYMNGMNRQRNILREKQTDEIKDTRNESTQNCVVAEPEKMESSISSSSEEMSLSKCAEQFCRLNEYNQLQLQAAHAQEQIRRMNENSHVQVPFQQLNQLAAY
notes: human αS1-casein, residues 16-145; Amplified from pET TS001, which codes for an N-terminal His6 tag; also called pET C2; source: E. coli, purified (NTA column chromatography); not shown: His6, C-terminal, kept

IL-8 secretion of TLR4+ cells after 24 h with 15 nM protein (sandwich ELISA) [3]: -2.5 ng/mL
B5: αS1-casein truncated variant N4 (domain or fragment, human, UniProt P47710 93-185, looked up)
chain: EMSLSKCAEQFCRLNEYNQLQLQAAHAQEQIRRMNENSHVQVPFQQLNQLAAYPYAVWYYPQIMQYVPFPPFSDISNPTAHENYEKNNVMLQW
